In patent US8198236B2, “Methods and compositions for the treatment of cancer” (Washington University, priority 2007, dated 2012):
Values belong to the molecule of their own block, whether it stands above or below them.

How the values were obtained:
LRP6 [1] = molecular target: T1, LRP6 (Homo sapiens, UniProt O75581); experiment: LRP6-mediated 125I-Mesd degradation in LRP6-transduced HT1080 cells; format: cell-based; settings: 500 nM unlabeled competitor, 4 hours at 37° C.
T1 construct: expressed in transfected cells; host or cells: human HT1080 cells, retroviral vector pLNCX2
Description: Ligand degradation was performed using the methods as described in Li, Y., et al., J. Biol. Chem. 275: 17187-17194, 2000. Briefly, 2×10^5 cells were seeded into 12-well dishes 1 day prior to assay. Pre-warmed assay buffer (minimal Eagle's medium containing 0.6% BSA with radioligand, 0.6 ml/well) was added to cell monolayers in the absence or the presence of unlabeled 500 nM RAP or 500 nM Mesd, followed by incubation for 4 hours at 37° C. Thereafter, the medium overlying the cell monolayers was removed and proteins were precipitated by addition of BSA to 10 mg/ml and trichloroacetic acid to 20%. Degradation of radioligand was defined as the appearance of radioactive fragments in the overlying medium that were soluble in 20% trichloroacetic acid. Kinetic analysis of endocytosis LRP6-transduced HT1080 cells were plated in 12-well plates at a density of 2×10^5 cells/well and used after overnight culture. Cells were rinsed twice in ice-cold assay buffer (minimal Eagle's medium containing 0.6% BSA), and ^125I-anti-HA IgG was added at 1 nM final concentration in cold assay buffer (0.5 ml/well). The binding of ^125I-anti-HA IgG was carried out at 4° C. for 90 minutes with gentle rocking Unbound ^125I-anti-HA IgG was removed by washing cell monolayers three times with cold assay buffer. Ice-cold stop/strip solution (0.2 M acetic acid, pH 2.6, 0.1 M NaCl) was added to one set of plates without warming up and kept on ice. The remaining plates were then placed in a 37° C. water bath and 0.5 ml assay buffer prewarmed to 37° C. was quickly added to cell monolayers to initiate internalization. After each time point, the plates were quickly placed on ice and the assay buffer was replaced with cold stop/strip solution. ^125I-anti-HA IgG that remained on the cell surface was stripped by incubation of cell monolayers with cold stop/strip solution for a total of 20 minutes (0.75 ml for 10 minutes, twice) and counted. Cell monolayers were then solubilized with low-SDS lysis buffer and counted. […] The fraction of internalized ^125I-anti-HA IgG after each time point was calculated and plotted. […]

LRP6 [2] = molecular target: T1, LRP6; experiment: 125I-RAP binding to LRP6-transduced HT1080 cells; settings: 125I-RAP 5 nM, 4 hours at 4° C.
Description: (§1) Cells (2×10^5) were seeded into 12-well dishes 1 day prior to assay. Ligand-binding buffer (minimal Eagle's medium containing 0.6% BSA with a different concentration of radioligand, 0.6 ml/well) was added to cell monolayers, in the absence or the presence of 500 nM unlabeled RAP or 500 nM unlabeled Mesd, followed with incubation for 0-4 hours at 4° C. Thereafter, overlying buffer containing unbound ligand was removed, and cell monolayers were washed and lysed in low-SDS lysis buffer (62.5 mM Tris-HCl pH 6.8, 0.2% SDS, 10% v/glycerol) and counted.
Receptor-associated protein (RAP) binds with high affinity to LRP, megalin, VLDLR and apoER2, and with a lower affinity to the LDLR (Bu, G., Int. Rev. Cytol. 209, 79-116. 2001). To determine whether RAP and Mesd bind to identical, overlapping, or different sites on the receptors, we performed binding and competition analysis of these two chaperones with HT1080 cells stably expressing LRP6.
In FIG. 8A, binding of ^125I-RAP (5 nM) to LRP6-transduced HT1080 cells and the control cells was carried out for 4 hours at 4° C. in the absence (total) or presence of 500 nM RAP, or 500 nM Mesd. In FIG. 8B, binding of^125I-Mesd (5 nM) to LRP6-transduced HT1080 cells was carried out for 2 hours at 4° C. in the absence (total) or presence of various concentrations of RAP or 500 nM Mesd. […]

LRP6 [3] = molecular target: T1, LRP6; experiment: Competition for 125I-Mesd binding to cell surface LRP6
Description: (§2) To examine whether Mesd binds with high affinity to most members of the LDLR family at the cell surface, we performed cell surface ligand binding experiments with cells stably transduced with LRP6 cDNA. Human HT1080 cells, which express undetectable levels of LRP6, were transduced with a viral vector alone (pLNCX2) or with vector containing LRP6 cDNA (Li, Y., Oncogene 23: 9129-9135, 2004) and used for ^125I-Mesd binding (FIG. 1A). ^125I-Mesd (5 nM) reached maximal binding after 2 hours incubation at 4° C. with LRP6-expressing HT1080 cells (FIG. 1A).
as §1
We performed binding of 5 nM ^125I-Mesd (5 nM) to cell surface LRP6 in the presence of various concentrations of excess unlabeled RAP or 500 nM unlabeled Mesd (FIG. 8B). RAP inhibited ^125I-Mesd binding in a dose-dependent manner with ˜60% inhibition achieved with 500 nM RAP, whereas the same concentration of unlabeled Mesd inhibited >90% of ^125I-Mesd binding (FIG. 8B). […] The lower affinity of RAP to cell surface LRP6 may also contribute to its lower efficiency in inhibition of Mesd binding.
In FIG. 8A, binding of ^125I-RAP (5 nM) to LRP6-transduced HT1080 cells and the control cells was carried out for 4 hours at 4° C. in the absence (total) or presence of 500 nM RAP, or 500 nM Mesd. In FIG. 8B, binding of^125I-Mesd (5 nM) to LRP6-transduced HT1080 cells was carried out for 2 hours at 4° C. in the absence (total) or presence of various concentrations of RAP or 500 nM Mesd. (C) LRP6-mediated ^125I-Mesd (5 nM) degradation was carried out for 4 hours at 37° C. in the absence or presence of 500 nM Mesd or 500 nM RAP. Values are the means of triple determinations with the s.d. indicated by error bars.
(§3) In order to investigate the binding of Mesd polypeptide and an Mesd oligopeptide to either LRP5 or LRP6, binding assays were performed using ^125I-Mesd or ^125I-DKK1 (FIG. 10).

LRP6 [4] = molecular target: T1, LRP6; experiment: 125I-DKK1 binding to LRP6; settings: 500 nM unlabeled, 125I-DKK1 5 nM, 3 hours at 4° C.
Description: as §1
RAP is a receptor antagonist for members of the LDLR family, and is able to inhibit the binding of most known ligands of the LDLR family members. DKK1 is an LRP6-specific ligand and antagonist. […] In these experiments, Serum-free conditioned medium was harvested from HEK293 cells transiently transfected with cDNA for human Myc-DKK1 and allowed to bind to LRP6-transduced HT1080 cells (B,C) and control cells (A) in the absence (A,B) or presence (C) of 1 μM Mesd. Cell-surface-bound Myc-tagged DKK proteins were fixed and detected by immunofluorescence staining with anti-Myc antibody. (D) DKK1 binding to cell surface LRP6 is inhibited by Mesd. Binding of 125I-DKK1 (5 nM) to LRP6-transduced HT1080 cells or the control cells was carried out for 3 hours at 4° C. in the absence (total) or presence of 500 nM RAP or 500 nM Mesd. […]

LRP6 [5] = molecular target: T1, LRP6; experiment: LRP6-mediated 125I-DKK1 degradation in LRP6-transduced HT1080 cells; format: cell-based; settings: 500 nM unlabeled, 4 hours at 37° C.
Description: Ligand degradation was performed using the methods as described in Li, Y., et al., J. Biol. Chem. 275: 17187-17194, 2000. Briefly, 2×10^5 cells were seeded into 12-well dishes 1 day prior to assay. Pre-warmed assay buffer (minimal Eagle's medium containing 0.6% BSA with radioligand, 0.6 ml/well) was added to cell monolayers in the absence or the presence of unlabeled 500 nM RAP or 500 nM Mesd, followed by incubation for 4 hours at 37° C. Thereafter, the medium overlying the cell monolayers was removed and proteins were precipitated by addition of BSA to 10 mg/ml and trichloroacetic acid to 20%. […] After each time point, the plates were quickly placed on ice and the assay buffer was replaced with cold stop/strip solution. ^125I-anti-HA IgG that remained on the cell surface was stripped by incubation of cell monolayers with cold stop/strip solution for a total of 20 minutes (0.75 ml for 10 minutes, twice) and counted. Cell monolayers were then solubilized with low-SDS lysis buffer and counted. […] The fraction of internalized ^125I-anti-HA IgG after each time point was calculated and plotted.
RAP is a receptor antagonist for members of the LDLR family, and is able to inhibit the binding of most known ligands of the LDLR family members. […] Cell-surface-bound Myc-tagged DKK proteins were fixed and detected by immunofluorescence staining with anti-Myc antibody. […]

LRP5 = LRP5 (Homo sapiens, UniProt O75197); experiment: 125I-DKK1 binding to LRP5; settings: FIG. 10B
Description: as §3

LRP6 [6] = molecular target: T1, LRP6; experiment: 125I-Mesd cell surface binding to LRP6-transduced HT1080 cells; settings: LRP6-transduced HT1080 cells
Description: as §2
(A) Time course of ^125I-Mesd (5 nM) binding to LRP6-transduced HT1080 cells and the control cells. Assay was carried out for the indicated periods at 4° C. in the absence (total) or presence of 500 nM Mesd (non-specific). (B) Saturation binding of ^125I-Mesd to LRP6-transduced HT1080 cells and the control cells. Assay was carried out at indicated concentrations for 3 hours at 4° C. in the absence (total) or presence (non-specific) of 500 nM Mesd. (C) Scatchard plots of data in B. All values are the average of triple determinations with the s.d. indicated by error bars.
as §1
To analyze the Mesd sequences that are required for Mesd to bind to mature LRP6 at the cell surface with high affinity, sequences were compared between mouse Mesd and its homologs from different species. […] We thus generated two truncated Mesd mutants lacking either the N-terminal region, MESD (12-195), or both the N-terminal and C-terminal regions, Mesd (12-155) (FIG. 3A). The ability of these mutants to bind to cell surface LRP6 was then assessed.
In this example, a truncated Mesd mutant containing the last 45 amino acids of C-terminal region was generated (FIG. 3A) and its binding affinity for LRP6 was then analyzed. […] (A) Binding analyses of ^125I-Mesd and its mutant Mesd (150-195) (5 nM) to LRP6-transduced HT1080 cells and control cells. (B) Binding analyses of ^125I-Mesd and its mutant Mesd (150-195) (5 nM) to LRP6-transduced HT1080 cells. Assays were carried out for 3 hours at 4° C. in the absence or presence of 500 nM Mesd or its mutant. Values are the means of triple determinations with the s.d. indicated by error bars.
LRP6-mediated Mesd uptake and degradation was investigated in the experiments illustrated in FIG. 7. (A) LRP6-mediated ^125I-Mesd (5 nM) degradation in LRP6-transduced HT1080 cells and control cells was carried out for 4 hours at 37° C. in the absence or presence of 500 nM Mesd. (B) ^125I-Mesd (5 nM) binding to LRP6-transduced HT1080 cells and the control cells was carried out for 4 hours at 4° C. in the absence or presence of 500 nM Mesd. Values are the means of triple determinations with the s.d. indicated by error bars.

Wnt signaling = experiment: TCF/LEF-luc reporter assay in Wnt-3A-treated HEK293 cells; format: cell-based; settings: Wnt3A conditioned medium plus 500 nM, 16 hours at 37° C.
Description: HEK293 cells were plated into six-well plates. For each well, 0.1 μg of the TOP-FLASHTCF luciferase construct (Upstate Biotechnology) was cotransfected with 0.8 μg Mesd-expressing vector, 0.8 μg Mesd mutant-expressing vector, or empty vector. A β-galactosidase-expressing vector (Promega, Madison, Wis.) was included as an internal control for transfection efficiency. After 48 hours, cells were lysed and both luciferase and β-galactosidase activities were determined with enzyme assay kits (Promega). The luciferase activity was determined with a luminometer using the Dual Luciferase Assay system (Promega). Luciferase activity was normalized to the activity of the β-galactosidase.
In these experiments, transfected cells were treated without Wnt-3A or with Wnt-3A plus the indicated inhibitors (Mesd and/or Dkk1) for 16 hours at 37° C. Wnt signaling was measured by quantifying the luciferase activity using a live cell imaging system.

T1 sequence (O75581 20-1613): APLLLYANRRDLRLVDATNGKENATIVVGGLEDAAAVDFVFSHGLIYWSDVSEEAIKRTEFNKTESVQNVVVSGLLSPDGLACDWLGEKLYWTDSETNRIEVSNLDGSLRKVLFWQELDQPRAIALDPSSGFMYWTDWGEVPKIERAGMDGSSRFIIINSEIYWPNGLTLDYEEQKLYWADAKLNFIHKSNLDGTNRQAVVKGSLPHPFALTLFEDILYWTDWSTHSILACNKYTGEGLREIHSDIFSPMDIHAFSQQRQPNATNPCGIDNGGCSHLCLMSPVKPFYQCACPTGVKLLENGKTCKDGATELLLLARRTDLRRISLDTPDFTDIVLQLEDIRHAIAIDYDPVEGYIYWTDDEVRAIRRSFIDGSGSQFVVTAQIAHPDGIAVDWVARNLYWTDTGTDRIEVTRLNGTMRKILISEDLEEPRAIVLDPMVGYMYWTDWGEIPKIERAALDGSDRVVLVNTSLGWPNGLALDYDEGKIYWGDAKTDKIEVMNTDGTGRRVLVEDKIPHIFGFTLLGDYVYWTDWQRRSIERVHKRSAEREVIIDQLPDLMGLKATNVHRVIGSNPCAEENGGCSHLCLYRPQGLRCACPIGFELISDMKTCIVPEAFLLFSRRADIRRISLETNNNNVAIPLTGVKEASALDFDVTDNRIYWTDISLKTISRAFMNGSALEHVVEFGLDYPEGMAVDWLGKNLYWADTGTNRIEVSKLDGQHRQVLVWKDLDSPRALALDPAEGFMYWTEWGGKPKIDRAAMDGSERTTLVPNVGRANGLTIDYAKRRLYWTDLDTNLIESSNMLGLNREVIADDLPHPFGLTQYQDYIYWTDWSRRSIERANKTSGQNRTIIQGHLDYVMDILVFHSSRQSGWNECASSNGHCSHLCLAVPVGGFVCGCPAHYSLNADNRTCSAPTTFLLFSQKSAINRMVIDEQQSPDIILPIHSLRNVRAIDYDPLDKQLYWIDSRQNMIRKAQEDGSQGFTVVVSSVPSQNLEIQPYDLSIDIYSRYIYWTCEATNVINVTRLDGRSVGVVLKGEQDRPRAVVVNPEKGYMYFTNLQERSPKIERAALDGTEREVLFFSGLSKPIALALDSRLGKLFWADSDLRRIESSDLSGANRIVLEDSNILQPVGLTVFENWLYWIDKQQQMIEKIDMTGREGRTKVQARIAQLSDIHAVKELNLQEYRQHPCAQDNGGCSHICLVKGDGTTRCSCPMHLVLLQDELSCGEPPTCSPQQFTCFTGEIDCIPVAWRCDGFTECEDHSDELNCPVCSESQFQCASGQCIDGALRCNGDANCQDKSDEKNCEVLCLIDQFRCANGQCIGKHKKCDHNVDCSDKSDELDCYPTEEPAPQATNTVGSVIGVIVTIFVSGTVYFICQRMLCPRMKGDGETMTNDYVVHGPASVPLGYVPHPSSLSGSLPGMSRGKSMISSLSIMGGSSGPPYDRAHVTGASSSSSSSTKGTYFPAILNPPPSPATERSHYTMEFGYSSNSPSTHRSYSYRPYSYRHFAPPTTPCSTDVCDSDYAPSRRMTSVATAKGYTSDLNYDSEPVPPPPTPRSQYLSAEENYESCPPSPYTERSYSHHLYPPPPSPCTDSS
LRP5, sequence (O75197 32-1615): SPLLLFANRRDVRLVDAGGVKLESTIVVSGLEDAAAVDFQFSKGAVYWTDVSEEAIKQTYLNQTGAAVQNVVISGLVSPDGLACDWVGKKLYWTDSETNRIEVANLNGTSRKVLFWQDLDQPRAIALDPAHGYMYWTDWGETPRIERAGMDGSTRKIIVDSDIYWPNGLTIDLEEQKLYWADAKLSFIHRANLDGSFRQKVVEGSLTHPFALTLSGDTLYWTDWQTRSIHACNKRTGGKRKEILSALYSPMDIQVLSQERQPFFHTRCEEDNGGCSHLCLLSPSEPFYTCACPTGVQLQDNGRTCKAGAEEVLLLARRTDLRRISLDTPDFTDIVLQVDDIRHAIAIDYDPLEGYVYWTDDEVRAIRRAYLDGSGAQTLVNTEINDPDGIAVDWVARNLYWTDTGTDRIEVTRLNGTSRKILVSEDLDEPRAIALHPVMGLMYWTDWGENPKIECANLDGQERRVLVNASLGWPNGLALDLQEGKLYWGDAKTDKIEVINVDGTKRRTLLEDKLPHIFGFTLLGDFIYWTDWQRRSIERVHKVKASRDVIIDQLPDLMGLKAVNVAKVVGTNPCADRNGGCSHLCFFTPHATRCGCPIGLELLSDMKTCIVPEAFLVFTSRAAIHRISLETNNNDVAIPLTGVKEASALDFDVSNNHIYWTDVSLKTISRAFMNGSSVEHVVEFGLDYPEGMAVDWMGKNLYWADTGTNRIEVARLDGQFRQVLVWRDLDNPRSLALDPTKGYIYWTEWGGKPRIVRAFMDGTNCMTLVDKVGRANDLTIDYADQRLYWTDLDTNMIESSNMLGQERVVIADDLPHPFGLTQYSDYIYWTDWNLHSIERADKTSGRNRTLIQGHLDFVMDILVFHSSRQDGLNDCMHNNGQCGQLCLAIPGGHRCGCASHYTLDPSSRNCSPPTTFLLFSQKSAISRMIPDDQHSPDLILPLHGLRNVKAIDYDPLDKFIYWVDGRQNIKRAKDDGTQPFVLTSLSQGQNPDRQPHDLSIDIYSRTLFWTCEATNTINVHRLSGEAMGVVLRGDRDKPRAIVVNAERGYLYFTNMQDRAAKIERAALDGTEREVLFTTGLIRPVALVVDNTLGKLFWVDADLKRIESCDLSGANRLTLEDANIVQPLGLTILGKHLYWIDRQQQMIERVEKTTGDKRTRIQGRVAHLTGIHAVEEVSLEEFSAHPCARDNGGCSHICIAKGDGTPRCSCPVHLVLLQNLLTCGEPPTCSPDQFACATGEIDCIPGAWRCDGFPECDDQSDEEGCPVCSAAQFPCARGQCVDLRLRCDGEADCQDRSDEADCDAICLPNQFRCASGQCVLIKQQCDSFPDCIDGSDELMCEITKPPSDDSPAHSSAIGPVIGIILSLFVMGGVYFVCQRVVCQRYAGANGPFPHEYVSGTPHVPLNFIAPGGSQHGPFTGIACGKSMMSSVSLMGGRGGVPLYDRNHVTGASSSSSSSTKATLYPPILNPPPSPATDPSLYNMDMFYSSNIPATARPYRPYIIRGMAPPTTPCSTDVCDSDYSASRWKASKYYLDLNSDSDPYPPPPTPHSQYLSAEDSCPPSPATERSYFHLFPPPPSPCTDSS

Molecule: QMYPGKGGGSKEKNKTKPEKAKKKEGDPKPRASKEDNRAGSRREDL [Mesd (150-195)]
- Binding of truncated Mesd mutants to cell surface LRP6 (LRP6 [6]): necessary and sufficient for LRP6 binding
- Inhibition of Wnt signaling (luciferase activity) (Wnt signaling): moderately inhibit

Molecule: KGGGSKEKNKTKPEKAKKKEGDRKPRASKEDNRAGSR [Mesd WT peptide]
- Inhibition of Wnt signaling (luciferase activity) (Wnt signaling): moderately inhibit

B1: MESD (12-195): Truncated mouse Mesd mutant lacking the N-terminal region (protein)
chain: RKKKDIRDYNDADMARLLEQWEKDDDIEEGDLPEHKRPSAPIDFSKLDPGKPESILKMTKKGKTLMMFVTVSGNPTEKETEEITSLWQGSLFNANYDVQRFIVGSDRAIFMLRDGSYAWEIKDFLVSQDRCAEVTLEGQMYPGKGGGSKEKNKTKPEKAKKKEGDRKPRASKEDNRAGSRREDL
modifications: left off: small tags and cut ends
notes: Truncated mouse Mesd mutant lacking the N-terminal region
- Binding of truncated Mesd mutants to cell surface LRP6 (LRP6 [6]): no effect on LRP6 binding

More lines, now with the values ahead:

- Inhibition of 125I-Mesd degradation (LRP6 [1]): only partially
- Increase of RAP binding in LRP6 expressing HT1080 cells compared to control cells (LRP6 [2]): ~20%
- Inhibition of 125I-Mesd binding to cell surface LRP6 (LRP6 [3]; 500 nM unlabeled competitor, 125I-Mesd 5 nM, 2 hours at 4° C.): ~60%
- Effect on increased 125I-DKK1 binding of LRP6-expressing HT1080 cells (LRP6 [4]): not
- Effect on increased 125I-DKK1 degradation of LRP6-expressing HT1080 cells (LRP6 [5]): not
Molecule: RAP: Human recombinant 39 kDa receptor-associated protein, expressed in a GST expression vector [reference compound]

- Reduction of binding of 125I-Mesd to LRP6 (LRP6 [3]; FIG. 10C, compared with LRP5): even greater reduction
- Reduction in binding of 125I-DKK1 to LRP5 (LRP5): small but significant reduction
Molecule: KGGGSKEKNKTKPEKAKKKEGDPKPRASKEDNRAGSR [SEQ ID NO: 20]

- Binding of truncated Mesd mutants to cell surface LRP6 (LRP6 [6]): completely abolished LRP6 binding
B2: Mesd (12-155): Truncated mouse Mesd mutant lacking both the N-terminal and C-terminal regions (protein)
chain: RKKKDIRDYNDADMARLLEQWEKDDDIEEGDLPEHKRPSAPIDFSKLDPGKPESILKMTKKGKTLMMFVTVSGNPTEKETEEITSLWQGSLFNANYDVQRFIVGSDRAIFMLRDGSYAWEIKDFLVSQDRCAEVTLEGQMYPGK
modifications: left off: small tags and cut ends
notes: Truncated mouse Mesd mutant lacking both the N-terminal and C-terminal regions
